Ends that are not written are not given here.
Biological target: T1, RNF31 PUB domain (Homo sapiens, UniProt Q96EP0)
T1 construct: MBP-TEV (N, cleaved yes); made in house; host or cells: E. coli BL21 (DE3) pLysS
T1 sequence (Q96EP0 1-179): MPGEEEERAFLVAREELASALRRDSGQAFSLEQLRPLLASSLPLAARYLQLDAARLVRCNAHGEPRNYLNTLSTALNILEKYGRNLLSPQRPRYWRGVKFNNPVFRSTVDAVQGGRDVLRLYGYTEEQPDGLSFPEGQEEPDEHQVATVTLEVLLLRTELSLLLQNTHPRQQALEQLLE
Assay: Phage Library Screening with NGS, RNF31 PUB domain
Type: binding
Details: for Phage library screen NGS readout, Target Concentration 10 / Phage library screen NGS readout, Target Concentration 30 / Phage library screen NGS readout, Target Concentration 100 / Phage library screen NGS readout, Target Concentration 300 / Phage library screen NGS readout, Target Concentration 1000: RNF31 PUB domain clusters C41-C45; for Phage library screen NGS readout, BLANK: clusters C41-C45

[1] = target concentration 1000, first column
[2] = target concentration 1000, second column

Sequence | Phage library screen NGS readout, Target Concentration 10 | Phage library screen NGS readout, Target Concentration 30 | Phage library screen NGS readout, Target Concentration 100 | Phage library screen NGS readout, Target Concentration 300 | Phage library screen NGS readout, Target Concentration 1000 [1] | Phage library screen NGS readout, Target Concentration 1000 [2] | Phage library screen NGS readout, BLANK (column 1 of 5) | Phage library screen NGS readout, BLANK (column 2 of 5) | Phage library screen NGS readout, BLANK (column 3 of 5) | Phage library screen NGS readout, BLANK (column 4 of 5) | Phage library screen NGS readout, BLANK (column 5 of 5)
DPALWDCLYAADACITS (not fully specified; cysteine pairing not given here) | 0 | 1 | 0 | 4 | 8 | 12 | 0 | 2 | 1 | 0 | 0
DPAMEWCWDAAVFCTYS | 1 | 1 | 0 | 6 | 18 | 16 | 2 | 1 | 0 | 1 | 1
DPAMIDCFLAAQVCATY (not fully specified; cysteine pairing not given here) | 0 | 0 | 0 | 1 | 6 | 6 | 0 | 0 | 0 | 0 | 0
DPAMQDCQLAALVCTTY | 0 | 1 | 0 | 1 | 6 | 6 | 0 | 0 | 0 | 0 | 0
DPAMQECMDAAIMCTYA | 0 | 0 | 0 | 4 | 14 | 8 | 0 | 2 | 0 | 0 | 0
DPANFTCRVAADVCSTY | 0 | 0 | 3 | 3 | 26 | 12 | 0 | 0 | 1 | 0 | 0
DPAQDQCISAAVLCTYT | 0 | 0 | 0 | 22 | 44 | 37 | 0 | 0 | 1 | 0 | 0
DPAQDWCMYAAYECDAH | 0 | 0 | 0 | 2 | 7 | 9 | 0 | 0 | 2 | 1 | 1
DPAQEACWDAAIMCTYR | 0 | 0 | 0 | 29 | 56 | 80 | 0 | 0 | 0 | 0 | 0
DPAQEECFEAAVFCSYY | 2 | 0 | 2 | 7 | 36 | 20.49 | 0 | 0 | 0 | 0 | 1
DPAQHECIYAAWDCDML | 1 | 1 | 1 | 5 | 6 | 8 | 3 | 2 | 0 | 1 | 0
DPAQMECIDAAIMCSYT | 0 | 0 | 0 | 3 | 5 | 5 | 0 | 0 | 0 | 0 | 0
DPAQYQCDIAAQVCSTY | 0 | 0 | 0 | 4 | 12 | 10 | 0 | 0 | 0 | 0 | 0
DPAQYQCWNAAMSCSYS | 1 | 1 | 3 | 3 | 7 | 4 | 1 | 0 | 0 | 3 | 2
DPARDWCLYAAYDCYTA (Ac-DPARDWCLYAAYDCYTA-NH2; not fully specified (bridges); cysteine pairing not given here) | 0 | 0 | 4 | 61 | 350 | 353 | 1 | 0 | 3 | 1 | 0
DPARRECWDAAILCTYY | 0 | 0 | 1 | 12 | 40 | 44 | 0 | 0 | 1 | 0 | 0
DPASEWCLDAAVLCTYS | 0 | 0 | 3 | 18 | 63 | 65 | 2 | 0 | 0 | 0 | 0

— patent publication US20240376151A1, “STAPLED PEPTIDES AND METHODS THEREOF” (FOG PHARMACEUTICALS, INC., priority 2022, published 2024)
